Measured values as given in patent US20240218057A1 (ROCKEFELLER UNIVERSITY, published 2024).

The binders below were run against T1, SARS-COV-2 RBD (SARS-COV-2, UniProt P0DTC2 319-539) (assay: ELISA, RBD coated).
T1 construct: also called WT RBD

| Binder | EC50 [ng/mL] |
| --- | --- |
| C862 (antibody, V domains shown, IgG; V domains only) VH: QVQLQESGPGLVKPSQTLSLTCTVSGASISSSEHYWSWIRQPPGKGLEWIGYISYSGGTYQNPSLQSRMTLSMDASKNQFSLKLSSVTAADTAVYFCARLNTMIVMINGVFDVWGQGTMVTVSS VL: DIQMTQSPSSLSAFVGDRVTITCQASQDINKYVNWYQQKPGKAPKLLIYDASNLQTGVPSRFSGSGSGTHFTFTISSLQPEDFATYYCQEYDNLFSISFGQGTRLEIK | 2.14 |
| C868 (antibody, V domains shown, IgG; V domains only) VH: QVQLQESGPRLVKPSETLSLTCIVSGGSVSSNNFYWSWIRQPPGKRLEWIGYFYNSGSSKYNPSLKSRVTISGDTSKNQFSLKLSSVTAADTAVYYCARETFFYDRTGHYKSDGFDVWGQGTMVTVSS VL: DIQMTQSPSTLSASVGDRVTISCRASQNISSWLAWYQQEAGKAPKLLIYKASSLESGVPSRFSGSGSGTEFTLTISSLQPGDFATYYCQQYNIYSYTFGQGTKLEIK | 3.39 |
| C880 (antibody, V domains shown, IgG; V domains only) VH: QVQLQQWGAGLLKPSETLSLTCAVYGGSFSDYYWSWIRQPPGKGLEWIGENNHSGKTNYNPSLENRVTISVDTSKNQFSLKLTSVTAADTAVYYCARESGSYGTFDYWGQGTLVTVSS VL: EIVLTQSPGTLSLSPGERATLSCRASQSVSSAYLAWYQQKPGQAPRLLIYGASSRATGIPDRFSGSGSGTDFTLTISRLEPEDFAVYFCQQYAYTIWTFGQGTKVEIK | 2.2 |
| C894 (antibody, V domains shown, IgG; V domains only) VH: EVQLVQSGAEVKKPGESLRISCKGSGYSFTGYWISWVRQMPGKGLEWMGRIDPSDSYTNYSPSFEGHVTFSADTALSTAYLQWSSLQASDTAIYFCGRIAPPGRGSYYPTQNYMDVWGKGTTVTVSS VL: EIVLTQSPGTLSLSPGERATLSCTADQSVPNSYLAWYQHKPGQAPRLLIYGASSRATGIPDRFSGSGSGIDFTLTISRLEPEDFAVYYCQQYGSLLLTFGGGTKVEIK | 16.8 |
| C877 (antibody, V domains shown, IgG; V domains only) VH: EVQLVESGGGLIPPGGSLRLSCAASGIIVSRNYMSWVRQTPGKGLEWVSVMYAGGTKEYADSVKGRFIISRDDSNNTLYLQMNSLRAEDTAVYYCARDLIVLGVDVWGQGTTVTVSS VL: DIQLTQSPSFLSASVGDRVTITCRASQGISNYLAWYQQKPGKAPKLLIYAASTLQSGVPSRFSGSGSGTEFTLTISSLQPEDFATYYCQLLNSYPMCSFGQGTKLEIK | 2.53 |
| C871 (antibody, V domains shown, IgG; V domains only) VH: EVQLVESGGGLIQTGGSLKLSCAASGFIVTNNYMSWVRQAPGKGLEWVSVIYSGGTTYYADSVKGRFTISRDISKNTLYLQMNSLKAEDTAVYYCAREGDVEGISDSWSGYSRDRYYFDHWGQGTLVTVSS VL: QSALTQPASVSGSPGQSITISCTGTSSDVGGYNYVSWYQQHPGKAPKLMIYDVSNRPPTISNRFSGSKSGNTASLIISGLQPEDEADYYCSSFTSNNTRVFGTGTKVTVL | 1.52 |
| C869 (antibody, V domains shown, IgG; V domains only) VH: QVQLVESGGGVVQPGTSLRLSCAASGFTFSSFGMNWVRQAPGKGLEWVAVIFFDGSKTYYADSVKGRFTISRDNSKNTLYLQMNSLRTEDTAVYYCAKGQLRLGEFDDYWGQGTLVTVSS VL: DIQMTQSPSSLSASVGDRVTITCRASQDIRDDLNWYQHKPGKAPKLLIYTASSLQSGVPSRFSGSGSGTDFTLTISRLQPEDFASYYCLQDHNYPLTFGQGTKLEIK | 3.14 |
| C885 (antibody, V domains shown, IgG; V domains only) VH: QVQLQESGPGLVKPSQTLSLTCAVSGDSIRSGGYYWSWVRQHPGRGLEWIGYIYFSGTTYYNPSLKSRVTISVDTSEKQFSLKLTSVTDADTAVYFCARVKGWLRGYFDYWGQGALVTVSS VL: NFMLTQSHSVSESPGKTVTISCTGSSGNIVNNYVQWYQQRPGSAPIIVIYEDTQRPSGVPDRFSGSIDTSSNSASLTISGLKTEDEADYYCQSYDSGSHVVFGGGTKLTV | 7.45 |
| C879 (antibody, V domains shown, IgG; V domains only) VH: QVQLQESGPGLVKPSQTLSLTCGVSGDSISSGGHFWSWVRQHPGTGLEWIAYSPFSGTTYYNPSLKSRVTLSVDTSKNQFFLSLTSVTDADTAVYFCARVKGWLRGYFDHWGQGVLVTVSS VL: NFMLTQPHSVSESPGKTVTISCTASSGNIVNNYVQWYQQRPGSAPIIVIYEDAQRPSGVPDRFSGSIDTSSNSASLTISGLKTEDEADYYCQSYEIDSHVVFGGGTRLTV | 4.25 |
| C873 (antibody, V domains shown, IgG; V domains only) VH: QVQLVQSGPEVKKPGASVKVSCKASGYIFTDYSIHWVRQAPGQGLEWMGWINPNSGGGNSAQIFKGRATMARDTSITTVYMDLSGLRSDDTAVYYCARGPLFHKVVYESSSGFHDGLDFWGQGTMVTVSS VL: QSALTQPASVSGSPGQSVTISCTGTSSDVGGYNFLSWYQQHPGKAPKLLLYEVINRPSGVSDRFSGSKSGNTASLTISGLQAEDEADYYCNSYTSNFTWVFGGGTHLTV | 4.05 |
| C867 (antibody, V domains shown, IgG; V domains only) VH: QVQLQESGPGLVKSSETLSLTCTVSSGSVRSGGYYWSWIRHHPGKGLEWIGYIFYTGITYYNPSLKSRVIVSVDPSKNQFSLNLTSVTAADTAVYYCASTPYTNGGAFHIWGQGTMVTVSS VL: QSALTQPPSASGSPGQSVTISCTGTSSDVGGHNYVSWYQQFPGKAPKLIIYDVNKRPSGVPDRFSGSKSANTASLTVSGLQAEDEADYHCSSYAGSNNWVFGGGTKLTVL | 2.71 |
| C884 (antibody, V domains shown, IgG; V domains only) VH: QVQLQQWGAGLLKPSETLSLTCVVYGGSFSAYYWSWIRQPPGKGLEWIGEINHSGSTNYKSSLQSRVTISVDTSKNQFSLKLSSVTAADTAVYYCARETGTYGTFDHWGQGTLVTVSS VL: EIVLTQSPGTLSLSPGERATLSCRASQSVSSTYLAWYQQKPGQAPRLLIYGASSRATGIPDRFSGSGSGTDFTLTISRLEPEDFAVYYCQQYAFSVWTFGQGTKVEI | 4.22 |
| C870 (antibody, V domains shown, IgG; V domains only) VH: EVQLVESGGGLVQPGKSLRLSCAGSGFAFSSYHMNWVRQAPGKGLEWVAYISSGSSTIHYADSVKGRFTISRDNAKNSFYLQMNSLRAEDTALYYCARAIVGTKGYMDVWGKGTTVTVSS VL: QSALTQPASVSGSPGQSVTISCTGTRSDVGSYDLVSWYQLHADKAPKLIIYEVTSRPSGISTRFSGSKSGNTASLTISGLQAEDEADYYCCSYAGTTWLFGGGTRLTVL | 2.17 |
| C881 (antibody, V domains shown, IgG; V domains only) VH: EVQLVESGGGLIQPGGSLRLSCAVSGVAVSTNYMSWVRQAPGQGLEWVSTIYSGDTTYYSDSVKGRFTISRDNSKNTFYLQMNSLRVPDTAVYYCARLGGVFNGFNGSFDYWGQGTLVTVS VL: QSALTQPASVSGSPGQSITISCIGTSSDFENYNLVSWYQQHPGKAPKVMIYEDTKRPSGVSNRFSGSKSANTASLTISGLQAEDEAEYYCCSYAGASTWVFGGGTRVTVV | 1.88 |
| C872 (antibody, V domains shown, IgG; V domains only) VH: EVQLVESGGGLIQPGGSLRLSCAASGFIVSNNYISWVRQAPGKGLEWVSVIYSGGTTYYADSVKGRFSISRDTSKNTVYLQINNLRAEDTAVYYCAREGDVDGNYGFWSGYSRDRYYFDYWGQGTLVTVSS VL: QSALTQPASVSGSPGQSITISCTGTSSDVGAYNYVAWYQQHPGKAPKLMVYDVSKRPSGVSNRFSGSKSGNTASLTISGLQTEDEGDYYCCSYTTNTTRVFGTGTMLTVL | 2.19 |
| C875 (antibody, V domains shown, IgG; V domains only) VH: QVQLVQSGAEVKQPGASVKISCKASGYIFTTYFMHWVRQAPGQGLEWLGIIDPTISGASLAQKFQGRVTMTSDTSTSTVYMEMRSLRSDDTALYFCARASTSTSSWSEALSLGSWGQGTLVTVSS VL: QSVLTQPPSVSGAPGQGVSISCTGSSSNVGAGYGVHWYQQLPGTTPKLLIYDNNSRPAGVPDRFSGSKSGTSASLAIAGLQPEDEADYYCQSWDNGLSGSGVVFGGGTKVTVL | 3.5 |
